Data reported in patent US6355481B1, “Hybridoma cell line and monoclonal antibody for huntingtin protein” (Emory University, priority 1999, dated 2002).

B1: HD-23Q: N-terminal region of human huntingtin (amino acids 1-253) with 23 glutamines, expression construct (protein)
chain: MATLEKLMKAFESLKSFQQQQQQQQQQQQQQQQQQQQQPPPPPPPPPPPQLPQPPPQAQPLLPQPQPPPPPPPPPPGPAVAEEPLHRPKKELSATKKDRVNHCLTICENIVAQSVRNSPEFQKLLGIAMELFLLCSDDAESDVRMVADECLNKVIKALMDSNLPRLQLELYKEIKKNGAPRSLRAALWRFAELAHLVRPQKCRPYLVNLLPCLTRTSKRPEESVQETLAAAVPKIMASFGNFANDNEIKVLLK
B2: CNTF: ciliary neurotrophic factor (protein, UniProt P26441 1-200, looked up)
Ciliary neurotrophic factor: MAFTEHSPLTPHRRDLCSRSIWLARKIRSDLTALTESYVKHQGLNKNINLDSADGMPVASTDQWSELTEAERLQENLQAYRTFHVLLARLLEDQQVHFTPTEGDFHQAIHTLLLQVAAFAYQIEELMILLEYKIPRNEADGMPINVGDGGLFEKKLWGLKVLQELSQWTVRSIHDLRFISSHQTGIPARGSHYIANNKKM
B3: HAP1-A: huntingtin-associated protein isoform expressed from cloned cDNA in pCIS vector transfected into PC12 cells (protein)
chain: MRPKDQVQSSAGDGTGSGDPATGTPTTQPAADPAPEPSAEPKPAPAQGTGSGQKSGSRTKTGGSFCRSRIRGDSDAPWTRYIFQGPYGPRATGLGTGRAEGIWKTPAAYIGRRPGVSGPERAAFIRELQEALCPNPLPRKKITEDDIKVMLYLLEEKERDLNTAARIGQSLVKQNSVLMEENNKLETMLGSAREEILHLRKQVNLRDDLLQLYSDSDDDEEDEEDEEEEEGEEEEREGQRDQDQQHDHPYGAPKPPPKAETLHHCPQLEALKQKLKLLEEENDHLREEASHLDNLEDKEQMLILECVEQFSEASQQMAELSEVLVLRLEGYERQQKEITQLQAEITKLQQRCQSYGAQTEKLQQQLASEKGVHPESLRAGSHMQDYGSRPRERQEDGKSHRQRSSMPAGSVTHYGYSVPLDALPSFPETLAEELRTSLRKFITDPAYFMERCDTRCREERKKEQGTMPPPPVQDLKPPEDFEAPEELVPEEELGAIEEVGTAEDGPAEETEQASEETEAWEEVEPEVDEATRMNVVVSALEASGLGPSHLDMKYVLQQLSNWQDAHSKRQQKQKVVPKGECSRRGHPPASGTSYRSSTL

Legend:
PC12 cells = assay: Transfection of PC12 cells, immunofluorescence: neurites and perinuclear inclusions; assay type: cell-based, rat; details: for transfected cells with neurites: neurites exceeding two body diameters, vector alone 4.7%
Method: cDNA constructs and transfection of cells. Cloned HAP1-A and HAP1-B cDNAs were inserted into the expression vector pCIS (Li et al., 1995) carrying the cytomegalovirus promoter. The expression constructs encoding N-terminal human huntingtin (253 amino acids) with 23, 73, or 120 glutamines were obtained in a previous study (Li and Li, 1998). PC12 cells were plated onto two-well chamber slides at a density of 50,000/cm^2 and cultured for 24 h. Two micrograms of plasmid DNA was then added to each well in a 1-ml solution containing Lipofectamine (10 μg/ml), yielding 3-8% transfected cells. Following 18-24 h transfection, the media were replaced with fresh growth media and the cells were grown for another 24 h before immunofluorescent staining. The immunostaining images were captured using a 3CCD camera video system. Neurite length was measured as cell body diameters. The average sizes (μm) of perinuclcar huntingtin inclusions were obtained by measuring the diameters of inclusions in 58-112 cells transfected with huntingtin alone. The percentage of transfected cells with neurites that exceeded two body diameters was obtained by counting 200-300 transfected cells in three independent experiments. For double transfection, equal amounts (2 μg for each) of HAP1-A and huntingtin cDNAs were transfected into PC12 cells in each well of six-well dishes. The transfected cells were immunostained with the rabbit polyclonal antibody for HAP1-A and mouse monoclonal antibody for huntingtin.

parental PC12 cells = assay: Neurite outgrowth assay, parental PC12 cells; assay type: cell-based, rat; details: control/parental PC12 cells; IL-6 20 ng/ml, CNTF 20 ng/ml, EGF 10 ng/ml, bFGF 20 ng/ml
Method: To evaluate neurite outgrowth, we plated the cells at low density (2×10^4 Cells/cm^2) onto six-well plates. Cell cultures were treated with NGF (100 ng/ml) for 48 hr or with staurosporine (50-100 nM) and EGF (10 ng/ml) for 16 hr and were fixed with 4% paraformaldehyde in PBS for 15 min. After several washes with PBS, cells with neurites exceeding the cell diameter were counted using an inverted microscope (Olympus Optical CK2, Tokyo, Japan). At the same time, five to seven images (10×) were captured by a Pixera camera, and the percentage of cells with neurites was confirmed by analyzing these images. On average, 500-800 cells were counted for each group.

Molecule | cells with elongated neurites (PC12 cells; double transfection with HAP1-A, HAP1-A alone 29.4%) [%] | transfected cells with neurites (PC12 cells; single transfection) [%] | neurite outgrowth promoted by growth factor (parental PC12 cells) | length of the neurites (PC12 cells; single transfection) [body diameters]
B1 | 24.6 | 5.1 |  | 
B2 |  |  | did not promote neurite outgrowth | 
B3 |  | 29.4 |  | 3.8
